Four molecules from article PMC12355471, “Clear Native Gel Electrophoresis for the Purification of Fluorescently Labeled Membrane Proteins in Native Nanodiscs” (Analytical Chemistry, 2025) can be followed below.

Read-outs that look alike come from different tables or passages of the source.

Data set [1] concerns the target voltage-gated potassium ion channel KvAP (Aeropyrum pernix) (UniProt Q9YDF8). Kind of data set: native gel or EMSA; detergent-free clear native PAGE (CNE) of Glyco-DIBMA nanodiscs, 4 °C, fluorescence imaging. Background: In EMSA bound probe runs differently from free probe, usually more slowly.
The target is the same in data set [2]. Kind of data set: SEC; Glyco-DIBMA native nanodiscs with labelled protein after Ni2+ affinity chromatography; absorbance at 280, 650 and 665 nm; oligomer peak at 10-11 mL.
For data set [3] the target is unchanged. Kind of data set: native gel or EMSA; high-resolution clear native PAGE (hrCNE) with 0.01% DDM and 0.05% sodium deoxycholate, Glyco-DIBMA nanodiscs, 4 °C, fluorescence imaging.
For data set [4] the target is unchanged. Kind of data set: fluorescence correlation spectroscopy (molecular brightness per nanodisc); Alexa Fluor 647-labelled protein in Glyco-DIBMA native nanodiscs; oligomer fraction after SEC and bands resolubilised from native gels; brightness compared with the free dye (ruler, 7.5 kHz); nM concentrations; standard buffer 150 mM NaCl or KCl, 50 mM Tris-HCl, pH 8.

Data set [5] has the same target. The description is as above. The source holds these as a separate data set.
For data set [6], the target named is voltage-gated sodium ion channel NavMs. Kind of data set: SEC; Glyco-DIBMA native nanodiscs with labelled protein after Ni2+ affinity chromatography; absorbance at 280, 650 and 665 nm; oligomer peak at 10-11 mL. In general terms: Size exclusion chromatography separates by hydrodynamic size, large species first.
Data set [7] has the same target. Kind of data set: native gel or EMSA; high-resolution clear native PAGE (hrCNE) with 0.01% DDM and 0.05% sodium deoxycholate, Glyco-DIBMA nanodiscs, 4 °C, fluorescence imaging.
The target is the same in data set [8]. Kind of data set: fluorescence correlation spectroscopy (molecular brightness per nanodisc); Alexa Fluor 647-labelled protein in Glyco-DIBMA native nanodiscs; oligomer fraction after SEC and bands resolubilised from native gels; brightness compared with the free dye (ruler, 7.5 kHz); nM concentrations; standard buffer 150 mM NaCl or KCl, 50 mM Tris-HCl, pH 8.

Data set [9] deals with the molecule itself. Kind of data set: SEC; Glyco-DIBMA native nanodiscs with labelled protein after Ni2+ affinity chromatography; absorbance at 280, 650 and 665 nm; oligomer peak at 10-11 mL.
Data set [10] concerns the molecule itself. Kind of data set: fluorescence correlation spectroscopy (molecular brightness per nanodisc); Alexa Fluor 647-labelled protein in Glyco-DIBMA native nanodiscs; oligomer fraction after SEC and bands resolubilised from native gels; brightness compared with the free dye (ruler, 7.5 kHz); nM concentrations; standard buffer 150 mM NaCl or KCl, 50 mM Tris-HCl, pH 8.

In general, stoichiometry N refers to a count of units in the complex or per binding partner.

As for “voltage-gated potassium ion channel KvAP (from UniProt Q9YDF8 1-295) (natural protein)”, the stoichiometry N in data set [1], in [2] and in data set [3] was 4 in each case. For the same molecule, the results for the ratio of molecular brightness to the free dye (taken as the oligomeric state) in data set [4] and in [5] were 5.5 fold and 4 fold, respectively.
“voltage-gated sodium ion channel NavMs (natural protein)”: the stoichiometry N in data set [6] and in data set [7] was 4 each time. In addition, the ratio of molecular brightness to the free dye (taken as the oligomeric state) in data set [8] was found to be 3 fold.

B1: urea channel HpUreI L134C (natural protein)
chain: MLGLVLLYVGIVLISNGICGLTKVDPKSTAVMNFFVGGLSIICNIVVITYSALHPTAPVEGAEDIAQVSHHLTSFYGPATGLLFGFTYLYAAINHTFGLDWRPYSWYSLFVAINTIPAAILSHYSDMLDDHKVCGITEGDWWAIIWLAWGVLWLTAFIENILKIPLGKFTPWLAIIEGILTAWIPAWLLFIQHWV
modifications: Alexa Fluor 647 maleimide on the cysteine of L134C
notes: urea channel UreI (HpUreI); Studied inside Glyco-DIBMA native nanodiscs; also called bacterial hexameric urea channel
B1: the “stoichiometry N” value in data set [9] was determined as 6. In addition, the “ratio of molecular brightness to the free dye (taken as the oligomeric state)” value in [10] is 6 fold.

B2: glycerol uptake facilitator protein (GlpF) (natural protein, UniProt P0AER0 1-281, looked up)
chain: MSQTSTLKGQCIAEFLGTGLLIFFGVGCVAALKVAGASFGQWEISVIWGLGVAMAIYLTAGVSGAHLNPAVTIALWLFACFDKRKVIPFIVSQVAGAFCAAALVYGLYYNLFFDFEQTHHIVRGSVESVDLAGTFSTYPNPHINFVQAFAVEMVITAILMGLILALTDDGNGVPRGPLAPLLIGLLIAVIGASMGPLTGFAMNPARDFGPKVFAWLAGWGNVAFTGGRDIPYFLVPLFGPIVGAIVGAFAYRKLIGRHLPCDICVVEEKETTTPSEQKASL
modifications: Alexa Fluor 647 maleimide on cysteine (six cysteine positions, not all can be labeled)
notes: glycerol uptake facilitator protein GlpF, a bacterial aquaporin; Studied inside Glyco-DIBMA native nanodiscs; A monomeric fraction was also found; also called bacterial aquaporin; aqua(glycero)porin GlpF
As to B2, the “stoichiometry N” value in data set [9] was determined as 4.
